We go through one molecule from patent US20250197493A1 (Eli Lilly, published 2025).

Test [1] has as its target T1, Human LAG-3 ECD-His (human, UniProt P18627 23-449).
T1 construct: It was the analyte in SPR and the antigen in HDX-MS; also called human LAG-3 soluble extracellular domain (ECD); human LAG-3-His ECD
T1 sequence: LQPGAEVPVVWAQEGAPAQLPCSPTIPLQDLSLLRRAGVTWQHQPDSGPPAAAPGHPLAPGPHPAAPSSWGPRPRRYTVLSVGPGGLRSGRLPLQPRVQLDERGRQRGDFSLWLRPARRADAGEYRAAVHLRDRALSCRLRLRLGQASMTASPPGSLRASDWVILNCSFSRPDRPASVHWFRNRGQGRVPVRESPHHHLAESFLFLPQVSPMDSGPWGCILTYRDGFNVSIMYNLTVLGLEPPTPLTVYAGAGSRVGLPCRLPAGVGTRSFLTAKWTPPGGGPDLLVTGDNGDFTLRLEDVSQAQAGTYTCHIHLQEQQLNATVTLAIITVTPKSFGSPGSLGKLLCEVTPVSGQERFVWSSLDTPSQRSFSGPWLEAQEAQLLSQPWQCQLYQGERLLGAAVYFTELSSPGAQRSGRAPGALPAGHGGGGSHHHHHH
As to the kind of experiment: SPR (Biacore), antibody captured, 25° C. The procedure:
(§1) Surface Plasmon Resonance (SPR) at 37° C. is performed to determine the binding kinetics and affinity of LAG-3 antibodies to human LAG-3 and/or cynomolgus monkey LAG-3. A Biacore® T200 (Cytiva, Marlborough, MA) was used to measure the binding kinetics and affinities of Antibody A to human LAG-3 soluble extracellular domain (ECD) SEQ ID NO: 59) and to cynomolgus LAG-3 ECD (ACROBiosystems, Cat #LA3-C82H3; SEQ ID NO: 59) by surface plasmon resonance. Samples were diluted in HBS-EP+ (10 mM Hepes, 150 mM NaCl, 3 mM EDTA, 0.05% Tween-20, pH 7.6) (Teknova Cat #H8022) with 5 g/L of BSA (Jackson ImmunoResearch Cat #001-000-161) running buffer. PrismA Series S Sensor chip (Cat #29650263) is purchased from Cytiva.
(§2) Binding was evaluated using multi-cycle kinetics by an antibody capture method. Each cycle was performed at either 37° C. or 25° C. at a flow rate of 10 μL/min for antibody capture to the PrismA chip and 100 μL/min for analyte association (with 120 sec contact time) and dissociation (900 sec). Each cycle consisted of the following steps: injection of antibody at 1 μg/mL in HBS-EP+ targeting Rmax values of 60 RU on flow cell, injection of analyte in HBS-EP+ (concentration range of 500 nM to 0.25 nM by two-fold serial dilution for human LAG-3-His ECD (SEQ ID NO: 59) followed by 900-second dissociation phase, and regeneration using 10 μL of 10 mM glycine hydrochloride, pH 1.5 over a 60-second contact time utilizing a 10 μL/min flow rate. All analyte concentrations were determined utilizing monomeric molecular weight (MW) values. Association rates (kₒₙ) and dissociation rates (koff) for LAG-3-ECD were evaluated using double referencing by flow-cell one reference subtraction in addition to 0 nM blank subtraction and fit to “1:1 (Langmuir) binding” model in the BIAevaluation software version 4.1. The dissociation constant (KD) was calculated from the binding kinetics according to the relationship KD=Koff/Kₒₙ. Stoichiometry=[RUₘₐₓ/RUcaptured]/[MWanalyte/MWantibody] where MW_{Antibody A} is 150 kDa. Values are reported as mean±standard deviation.

Test [2] deals with T2, Cynomolgus LAG-3 ECD-His (cynomolgus monkey).
T2 construct: Bought protein (ACROBiosystems); also called ACROBiosystems Cat #LA3-C82H3
T2 chain: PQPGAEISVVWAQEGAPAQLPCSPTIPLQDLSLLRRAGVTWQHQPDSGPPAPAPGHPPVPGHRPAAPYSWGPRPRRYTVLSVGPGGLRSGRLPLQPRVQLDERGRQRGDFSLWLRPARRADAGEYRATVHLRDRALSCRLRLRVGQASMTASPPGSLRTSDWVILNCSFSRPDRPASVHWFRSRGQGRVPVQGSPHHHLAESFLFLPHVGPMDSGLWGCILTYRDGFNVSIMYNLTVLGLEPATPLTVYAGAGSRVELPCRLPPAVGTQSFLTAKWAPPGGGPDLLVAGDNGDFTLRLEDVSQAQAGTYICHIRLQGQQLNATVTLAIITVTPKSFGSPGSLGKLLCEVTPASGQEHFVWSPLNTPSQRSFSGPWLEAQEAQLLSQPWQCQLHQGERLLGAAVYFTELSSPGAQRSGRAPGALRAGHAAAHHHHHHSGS
As to the kind of experiment: SPR (Biacore), antibody captured, 25° C. As to the method: as §1, §2
Background: In SPR one partner is held on a chip, and binding of the other changes the refractive index at the surface.

Test [3] has as its target T1, Human LAG-3 ECD-His. Briefly: SPR (Biacore), antibody captured, 37° C. As to the method:
as §1, §2

Test [4] concerns the target T2, Cynomolgus LAG-3 ECD-His. Briefly: SPR (Biacore), antibody captured, 37° C. The procedure:
as §1, §2

The target of test [5] is T3, cell membrane-expressed human LAG-3 (human, UniProt P18627 23-525).
T3 construct: also called cell surface human LAG-3; hLAG-3
T3 sequence: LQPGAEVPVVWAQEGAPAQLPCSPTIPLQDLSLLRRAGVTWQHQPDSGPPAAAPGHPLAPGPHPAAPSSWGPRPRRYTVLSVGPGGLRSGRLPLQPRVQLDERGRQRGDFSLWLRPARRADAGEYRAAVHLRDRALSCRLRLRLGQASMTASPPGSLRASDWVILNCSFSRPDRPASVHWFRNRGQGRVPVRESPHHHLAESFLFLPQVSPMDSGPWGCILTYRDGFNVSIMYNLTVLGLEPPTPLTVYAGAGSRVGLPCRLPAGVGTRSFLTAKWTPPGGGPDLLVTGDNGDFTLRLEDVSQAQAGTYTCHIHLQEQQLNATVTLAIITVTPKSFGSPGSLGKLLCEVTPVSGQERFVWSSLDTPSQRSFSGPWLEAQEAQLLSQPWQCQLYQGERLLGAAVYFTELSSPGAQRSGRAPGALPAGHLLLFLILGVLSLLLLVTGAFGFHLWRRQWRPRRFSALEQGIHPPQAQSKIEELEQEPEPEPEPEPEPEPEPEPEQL
As to the kind of experiment: flow cytometry, SEB-activated human PBMCs, CD4 T cells, percent of cells bound. The procedure: (§3) Cells were incubated with a 12 point, 4-fold serial dilutions of Antibody A or Isotype hG1, starting at 100 μg/mL, in PBS+2% FBS for 30 minutes at 4° C. The samples were washed and stained with 1 μg/mL Alexa Fluor 647 AffiniPure F (ab′) 2 Fragment Goat Anti-Human IgG, Fcy fragment specific (Jackson Immuno Research 109-606-098) in PBS+2% FBS for 30 minutes at 4° C. After washing thoroughly human samples were stained with CD3 Biolegend #300424, CD4 Biolegend #300512, CD8 Biolegend #301006, PD-1 Biolegend 329906, non-competing LAG3 418611 conjugated in house BN20-2739-10, Live/Dead Near IR Invitrogen L34975A, CD19 Biolegend 302218, CD33 Biolegend 366614, and CD56 Biolegend 362512 in PBS+2% FBS for 30 minutes at 4° C. Cyno samples were stained with CD3 BD 557917, CD4 BD 566910, CD8 BD 557746, PD-1 Biolegend 329906, non-competing LAG3 418611 conjugated in house BN20-2739-10, and Live/Dead Near IR Invitrogen L34975A in PBS+2% FBS for 30 minutes at 4° C. Cells were washed and processed on a BioRad ZE5 cytometer and data was analyzed with FlowJo software (BD Biosciences). Percent of cells bound by the respective antibody is quantified and graphed with Prism (Graphpad, San Diego, CA).
(In general: Flow cytometry measures light scatter and fluorescence of single cells or particles in a stream.)

Test [6] addresses T3, cell membrane-expressed human LAG-3. As to the kind of experiment: flow cytometry, SEB-activated human PBMCs, CD8 T cells, percent of cells bound. As to the method: as §3
Test [7] addresses T4, cell membrane-expressed cynomolgus LAG-3 (cynomolgus monkey).
T4 construct: whole, on cells; also called cell surface cynomolgus monkey LAG-3
As to the kind of experiment: flow cytometry, SEB-activated cynomolgus PBMCs, CD4 T cells, percent of cells bound. As to the method:
as §3

Test [8] concerns the target T4, cell membrane-expressed cynomolgus LAG-3. Briefly: flow cytometry, SEB-activated cynomolgus PBMCs, CD8 T cells, percent of cells bound. As to the method:
as §3

B1: Antibody A (antibody, human IgG1, kappa, V domains shown)
VH: QVQLQESGPGLVKPSQTLSLTCTVSGGSISSGGYYWSWIRQHPGKGLEWIGYIYYSGITYYNPSLKSRVTISVDTSKNQFSLKLSSVTAADTAVYYCARSAVTTPFDYWGQGTLVTVSS
VL: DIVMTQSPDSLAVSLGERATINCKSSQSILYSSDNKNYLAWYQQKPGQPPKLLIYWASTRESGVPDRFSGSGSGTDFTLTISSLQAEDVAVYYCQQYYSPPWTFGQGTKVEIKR
notes: Human IgG1 heavy chain, kappa light chain; also called anti-human LAG-3 agonist antibody
Broadly, the Kd is the concentration at which binding is half-saturated. High values mean lower affinity, low ones higher affinity. For orientation: koff means the first-order rate constant of dissociation. By kon is commonly meant a measure of how fast the partners come together. The term EC50 denotes the concentration giving half of the maximal effect. On to B1, for which the Kd was 0.14 nM in test [1], 0.038 nM in test [2], 0.064 nM in test [3] and 0.13 nM in test [4]. Further, the koff in test [1] was 0.0012 s⁻¹; in test [2], 0.00015 s⁻¹; in test [3], 0.0013 s⁻¹; in test [4], 0.00035 s⁻¹. For the same molecule, the on-rate constant (kon) in test [1] turned out to be 8.3e+06 M⁻¹ s⁻¹; in test [2], 3.9e+06 M⁻¹ s⁻¹; in test [3], 2.1e+07 M⁻¹ s⁻¹; in test [4], 2.7e+06 M⁻¹ s⁻¹. For the same molecule, the EC50 in test [5] amounted to 0.0156 µg/mL; in test [6], 0.0155 µg/mL; in test [7], 0.857 µg/mL; in test [8] it was 0.183 µg/mL.
